From the NTF2 design screens of Basanta et al. (2020) come the findings set out here.

This data set in a line: protease stability score; higher = more stable; yeast display proteolysis, trypsin and chymotrypsin.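 Also: relative to predicted unfolded state with 0 unfolded-like and 1 meaning tenfold more protease.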
Take “SEEEHEFKKFLEHFLHRLTTGDEDELRRLADPHVRVLINGRHIVGMDEVTKVLRHLREIIEELRIDDIDLQGDKIRMDTRTRIRFIIGDWETKIETRTRIFIWKFNGRWIMEHIERD”: the protease stability score came out at 0.811.

Consider “SEEERHIKEFTRRLLHVFITGDEHELKELFDPNTRSIFNGVDVHGWKEITRFIREIREKEVRIRDVKVFNGRVHLEGHSNMEWNGQERRSDVEMHFDVINGQVHEIEIRIR”, for which the protease stability score turned out to be 1.17.

“SEDERLALKMAEVIMHHLSTGDERILESFFDPNVQFIYGDKTNHGMEETLKFWEHIRIEVKSFTWKHITHVDGRLEMHTRSRELFIYGEFKEDRETRVHIIIDKVDGKWNHHSVRFR”: the protease stability score is 0.06.

“DEEEELARKYTEIYRHFMHTGDEDLNREFADPNTQILQGNKRFHGWKWYLEIVRRLGADHMEIHRVDVQGDKVHNDGRMIVNGKTLHFELIITKIDGRWVLREVRLG” yielded a protease stability score of 1.4.

“TESEKLSRIVIKLLIESTRTGDERILHELVDPNVKLNVNGRELHGWEEMVKIHKQWRFHDLEVDSVRLIGDKMEIDTTIHGTIDGQKDNIDVRIILEKVNGRWVLREVHIK” registered a protease stability score of 1.58.

Sequence “DEEERHTHEWFKELLHNLQTGDEDRFRQMADPNVQILVDGVEYIGREHAAHWMIIHIRHLRIEHEHDEEIRVFDGRIDVRHIRVGSYGDKRTDTRVHIDVNIIDGRIKFLRIHYS” gave a protease stability score of 0.869.

For “HEEEEWFKEVLHEVERLLMTGDWRTLVELLDPNVRININGVEYHGREEAHHKLEETFRRLGFDHIHFQHVEHQGEKVIVHLEVRFNGQSSIIRFVVLKVNGRWFNHSLQIN”, the protease stability score is 1.29.

“DEEEHHMKLAYDILLQTLRTGDEDLMERLIDPNVRFELLIGDFILHIHGWELVVEWDIRIARQWRIEHVHIKRYEVFNGRSRVNVKIDGVVNGRRYRFDIIELSLVIDGRVHHRSQEII”: the protease stability score amounted to 0.835.

In turn, “SEEKDDANRHLEIFFHYFITGDESSMLREADPHVQVEQGDKHIHGMEEWVTEWSKREKELGAKHIKLEDKRIHLINGRVHLILDLIIEVGDKRRRMILIVTIDKINGRWVMSQMKLEVR” yielded a protease stability score of 1.2.

Turning to “DEQETHNNNILERLIRILHTGDEHIYEHLFDPHARLHIGDKRFHGREELSRWLRRLGVRWEHFIERDVEVQGEKLRIEGERTVHIDGVRHHHRTEIIIIVIDGKIKSYEERHV”, the protease stability score came to 0.572.

“DEDRRLMEELTRHRIDLKKTGNEELLRTLADPNTRALVNGKDMHGREQIATWLWQFREDLGVDHIDLEDFHVQGDKMEVHLDWKVNGQRIEVIVIIYIVDGRIKKEEMHFT” showed a protease stability score of 0.416.

With “DESREIAHKFLEIWIDAFKTGDEDLNSELLDPNTRRDVGDFRIHGMELIVKIMSKELEKYKGITFRVKIRHSTWQGDKIHLIVDILIIIGDKEERIETHFILEKIDGRWITTHMQIR”, the protease stability score was 1.34.

In the case of “TEHEHEAEDALEKSIRHFHTGDEDTLKHLMDPNVRNDIDGKHIHGREDVLDIMIRIPNVRSEIDDVRVRHVNGRIEVIVDGILYFNGRTVEVRVILIMQKINGKWYITSLEIRRR”, the protease stability score was 0.628.

Take “SEEEHIVKEAVRLWYEAVHTGDPHTLNEFLDPHMRIEIGDKEKHGRHELKKLTEHIRIERLEFTLTHMKIVGNKAHVYGHLRFEGDWDGQRIHTEVETRLHIIKYDGKWMTEEVHIR”: the protease stability score is 1.97.

For “SEDEEDFERAIKLYETLNATGNEEEYSKMVDPHVKMHFNGVDFHGREKMVEVVHKLGVKHLETKSIRIIGDFLRSRFENDVDGRKIEQEVQMLKINGRWLIKYISFH”, the protease stability score amounted to 0.706.

Turning to “SEDEERARRFFEELIHVLHTGDEDSLIKMADPSVRLDFNGVEAVGREEFERMFKEIWREIRLEDLTSHHIDVFNGRIRIESKSHIEVNGVQITRDELVIVTKINGKWHLHSREVK”, the protease stability score is 1.56.

“DDSAKWTEIALKIKSHDSDTGNEEKIRRLLDPNVRIEINGQEIHGRDKISKWLSEIRIQIEHVDTERYELQGNKAIVDGRMHIKVSYGDKEMHFDIKFEIEVHKVDGQWLIHSERII” displayed a protease stability score of 0.754.

The sequence “SEDERDARHYLKEFEHAIETGDEHRLDELLDPNVKIDIDGVEHHGREWFRTLEHHIRVHSRVELKHIEVYGNFIVMDGHLHREIRINGRRIETHSRTIIIMRKVNGRWLVSELRFR” showed a protease stability score of 1.52.

The sequence “SEEEKELKTLVEELWHAWETGDEDFIHKYMDPHARLHIGDKDHHGREEIRESLRQHREHLRIEHVHRHHVKLVDGRIETHGHILGHIGDKRFETEMIIIIIVINGRIRSMKFDYR” registered a protease stability score of 1.03.

Consider “DERTEVSEEFHRILIKVWRTGDETLSHQLADPHAKAEIGDKTIHGRDLWKEVFRRESERYDHYDSRLKDVKVQGDYINLDVHLILHVDGVPVRTDVIEIVLKFNGRWRLHSFHVK”, for which the protease stability score came out at 0.684.

For “SEDEETSEELARRFSKAMKTGDFDHLVQQLDPNVRIDINGKEMIGRERFEEDMRRLNLSNIHFITRDIKVEIQGEMLHVRIDGHTRINGKDVKTHDIWIFEKIDGRWRLKEWIVHEE”, the protease stability score amounted to 0.913.

Regarding “DDEERHASTIFELLMEVILTGDEDTFEELADPNTRFDINGREFHGREYMSHLKTQYDHWYLKHMHITSSEVQGNFAILNSETDYELEYGDKRVSFYERWHLFVLKVDGRWIIHSFRIN”, the protease stability score is 0.985.

As for “NEEQKEAEDFMRMVSRIHETGDEDSLRRYFDPNVRIKDENHHLHGWKELIHWTHRVDHIEVRVKNVDIQGDKIHLDGEEIVRIDGVEVRRRVLFILTKVNGRWHIQEIRIE”, the protease stability score stood at 0.72.

As for “NEDEEKAKRFVKTYVHSLVTGDWKLWSEMADPNMILIYGDKTFIGREHFEEFFRRHIEELRFDSFHVDHVEIQGDKAELESRVSVIINGVERELETNMFLHKVDGRWLLTKFEVH”, the protease stability score was found to be 2.08.

As for “TEEEELSRKAAEILDEAQQTGDEDSIRELVDPNVKYEINGRIFVGWQEMLHAFRLELRHIRLREVHIKREKRIGNWMFIDSSMDGEVNGVRTERKSELVFLKFDGQWSLHSMRIE”, the protease stability score amounted to 1.56.

Turning to “DEKERKLLEIARLLIESFLTGDWKTFHEMLDPHVRFEVGDKEAHGWEEALRVWDHLKEEMRITDLDIHHYTVQGDKVHIDSRLHGEIDGKRVTFRTRIVVIVVNGRVKQVSYKIT”, the protease stability score was determined as 1.23.

On to “DDWEEVLKDFLKKYFEALHTGNEELFLLMLDPHVKFDWNGQKMVGREKEIETLRREIKSAGVTRIERELEIKDTRLVDGRLRIDLSIHLNFNGRKFEIDVELHLNKINGRWEIESIKYR”, for which the protease stability score came out at 1.15.

“SEEHETMNKLASDLIHDWLTGDWENTKELLDPHVKIDERVNGKNHQHHGREELVRILRERHEKIKGLRISIHHWEVINGRLHMDLRLHINGKTFSVEIHITIVDGRVKHIHVDIN” gave a protease stability score of 1.22.

Consider “DEDHRDAIFILRLFLHATETGDEDSLETLMDPHVKLEINGVRIHGRETTYILMRHWRFRIEHLEIRNFDVFNGRLELIGHRHTTINIDGREERHTVRLEVHIWKINGQWLVQHIHIH”, for which the protease stability score amounted to 2.91.

Regarding “TDEEKSVEELLEKIEHANDTGDFELHKRLADPHVRVLVNGVELHGRHVLMEWLRELFERFKNVTFRLNLREVEFQGEWVFLRIELTVHVNGRTHHHDSIYIIHKVDGRWHITEVRFH”, the protease stability score is 1.34.

For the sequence “DTEDKLSEEALKDLLEKVKTGDPQVMEELADPEVKVDIGDKNLHGREEYTRWVEKLWKRVPNLKLEIDHVEFQGDYVLIEGRIIYNGRKHKIKIHSLKIDGRWLIETVRIR”, the protease stability score was determined as 1.39.

As to “DEEEKRVIHIINLVEHALETGDEDLYKNLLDPDPIYNINGRILHGREFWLEFLHHMRESIEISHWHDVRSQGDKVTVHAKTTFLIRIGDKVDRVETEVRIIIVKINGRWLLHEIHHH”, the protease stability score was 0.849.

In turn, “DEEEEYAHRFVEDFIDAWLTGDEDRLEELMDPNVKIVVGDKVLVGRHLVIRLMHEWIRKYKGIKFVFHVKHLEAINGRLEIESEVDLRINGRKIKHTSKMVVRKIDGKWEIREFHLN” registered a protease stability score of 2.38.

Sequence “SEEDSKAMEMLDEWLKWLLTGNEHIFRTLADPHVRLTIGDKEHVGREHVIRMFHELRIDHFHVHDVRTQGDKAFMSGRMEGTVDGKKEDTDIRIFLVIVNGRIKHIELRIH” showed a protease stability score of 1.52.

“HEEEKQIHDIIEIIIRLLVTGNEEIHKRLADPHVRVEVGDKHFHGREEVTKFLMRIDHVQHVDHRIHRMDIIDGRADVHGDLLIDGDFDGRRTRTDIRVRWRIIKIDGRWILHSYSVL” yielded a protease stability score of 1.24.

Sequence “SEDERRFREALRIWFQLVRTGDEEELKHFFDPNVRIHIGDKTFHGMELVLRQIVEEAREIRVRSVTIHELDRQGEWIHMDVRIDEEINGRRIHHSVEIIALKINGKWFFHSIIIR” showed a protease stability score of 1.4.

Take “DEDKDKVRRWAEDFIRDLTTGDFDSLRREADPNYRIEVNGQDHHGMEFHLWVLDHLGLDNIHTELRDSEVQGDKAHNDIRITYNGKEMTVILIVDKVNGKWFVRKIRIE”: the protease stability score is 1.72.

For “TEEQHEARHLFQLWVYSVITGNEHILHNLVDPHYLLDVGDYHVHGREDTLKVLLEARVEDFRVRDVRVYDGRLESDIEFTGHFNGRKINNKVEMTQEKIDGRWYLKRTKVT”, the protease stability score was determined as 1.77.

“DDREKLWHRLVELEKELWLTGDFEDFHSLADPNVQLIVHFDGQEVHYHGRESVTMALKILREQLGADHFEPKSVHYQGNKMQTSMILFVNGREFEFRLTLFVIDGRLKSHHIEWK” displayed a protease stability score of 1.48.

“DEDERQLEESLKHWIKALETGNEEEVMRLLDPNVKIEIGDKDLHGMEAEEERLRKVKGMRIEFRLRDMKHIGDKIDIDGELRLNFNGVDIKSKIIIFAHKFNGRWINRRIIVL” yielded a protease stability score of 1.83.

For “DEEEHEIRQAIELEIRLIETGDFKAMRKMADPHVRTHINIGDKRLDLHGRDFFEWWLRFVKGVTHRFEDFVSVGNKVHIIVQDQVGDKRYEVKIVFKKVDGRWRMTESEVHFE”, the protease stability score is 1.83.

Sequence “SDEERDFTRLIRILRDALRTGDEHKLHELLDPHTRIIFDGQHHIGWERILEWADQIDHVHFRMTLHTVDIQGDKLRADLSLDVKIQVDGRTEHRHNVMHITVQKVNGRWRIQELYYK” returned a protease stability score of 1.27.

In the case of “DKEEEMVRHTATRFLHLLLTGDEEIITHLADPNMRIEVGDKESHGREHFADVIKEFSDHMRIKEWHIEVNEVVNGRILFDIHVDGIIGDKEDRIRFHLDIVVVNGKIKHVRIKIK”, the protease stability score stood at 1.15.

In turn, “DEEEEIARRITELWLTYMMTGDEDALIHMADPNVKSILIINGRHVHYHGREYWTKMLRDLGFKHTRIRRVDLQGDYSRLDIEDDFNGVYTRSELRLKVVNGRFHTIEINIH” displayed a protease stability score of 1.08.

With “DEEEERVRRIMKEFIESLLTGDFRILTELMDPNARLHVDGVELHGRETMRKFWKDRERELGVENFDAKQRDVRLINGKAHNDGELLINGQVTKWILRVEKVDGRWRLHHIELH”, the protease stability score was found to be 0.231.

“DEKRKVEERLLELIIEIFRTGDWEWYSELADPNVRVHQGEYHKHGREQASKHLLDELRHLGIKHIDERSYDVIDGQVYWHVRIEVGDKERQMHIRVRIVNGVLQHVHIEIH”: the protease stability score was determined as 1.17.

“SEEEENARRAAEHHEHVLKTGDEDHMTRMFDPNVRVRQGDKEIHGREEFRRLFHELVRRYPNLKFELEDVDVFNGKVVVHMIFWVDGRTIEIHWFIDKFDGQWVVEEVEFR” returned a protease stability score of 1.19.
